In patent publication US20230303623A1, “PEPTIDES AND METHODS OF USE” (REALTA LIFE SCIENCES, INC., priority 2020, published 2023):
“Also recorded” adds a separate entry of the source. Bridges are numbered along the chain shown (N, C = ends). Where no end group is shown, it is not given here. [ ]: non-standard residue; d: D form. S5 = C=CCCC[C@](C)(N)C(=O)O; Sar = CNCC(=O)O

Assays:
PD-1 binding to PD-L1 = molecular target: T1, PD-1 binding to PD-L1 (Homo sapiens, UniProt Q9NZQ7); assay: PD-1:PD-L1 inhibitor screening ELISA; settings: FIG. 8
T1 construct: purchased
Protocol: PIC1 peptides were allowed to bind to immobilized PD-L1 on the surface of the plate. Biotinylated PD-1 was then added and bound PD-1 detected by streptavidin-HRP reagent followed by TMB as the substrate for the colorimetric assay.
This inhibitor screening ELISA pair was designed to facilitate the identification and characterization of new PD-1 pathway inhibitors. In this assay, biotinylated human PD-1 was bound to immobilized human PD-L1 and a colorimetric sandwich ELISA platform was used. Plates were coated with human PD-L1 followed by incubation with various PIC1 peptides. Human PD-1-Biotin was then allowed to bind the coated human PD-L1 followed by addition of streptavidin-HRP. TMB was then added as the colorimetric HRP substrate and the wells of the plate analyzed in a plate reader at an absorbance of 450 nm.
The immune checkpoint pathway is an area of significant interest in cancer research. PD-1 is one of the best characterized checkpoint proteins. The binding between PD-1 and its ligand PD-L1 suppresses T-cell activation and allows cancer cells to escape from body's immune surveillance. Therefore, the pharmaceutical inhibition of PD-1 or its ligand has been considered a promising strategy by many cancer researchers. To ascertain if these PIC1 derivatives could inhibit PD-1 interaction with PD-L1, a commercial ELISA kit was utilized. […]

MPO = molecular target: T2, MPO (Homo sapiens, UniProt P05164); assay: MPO activity assay; assay type: biochemical; settings: compared to parent peptide
T2 construct: purchased Lee BioSolutions (Maryland Heights, MO)
Protocol: The MPO activity assay was performed as previously described. Briefly, peptides were diluted to 12 mg/ml and serially titrated in a 96 well plate at a volume of 0.02 ml. MPO was diluted to 20 μg/ml and 0.02 ml was added to the titrated peptides. TMB (3,30,5,50-tetramethylbenzidine) (0.1 ml) was added to each well for 2 minutes, followed by 0.1 ml of 2.5 N H2SO4 for another 2 minutes, and then read on a 96 well plate reader (BioTek) at 450 nm.
To ascertain the inhibition of MPO activity by the various peptides, a range of concentrations of the stapled peptides and D-amino acid variants were tested (FIG. 3A-3B) and half-maximal activity levels were calculated from the dose-response curves (FIG. 6A-6C, respectively).

C1q = molecular target: T3, C1q (Homo sapiens, UniProt P02745+P02746+P02747); assay: C1q binding ELISA-type assay; settings: compared to parent peptide
T3 construct: purchased Complement Technology (Tyler, TX)
Protocol: The C1q binding assay was performed as previously described. Briefly, an Immunlon-2 HB ELISA plate was coated with 1 μg/ml C1q in bicarbonate buffer overnight at 4° C. The plates were washed with PBS-T (phosphate buffered saline+0.1% Tween) and then blocked with 1% gelatin/PBS for 2 hours at room temperature. After washing, the plates were incubated with the peptides starting at 2.5 mg/ml and then serially diluted in 1% gelatin/PBS for 1 hour at room temperature followed by washing. Plates were then probed with rabbit antibody raised against the lead peptide […] (SEQ ID NO: 2) that lacked PEGylation at 1:1000 in 1% gelatin/PBS for 1 hour at room temperature followed by a goat anti-rabbit HRP (Sigma Aldrich, St Louis, MO) at 1:1,000 in 1% gelatin/PBS for 1 hour at room temperature with a washing step in between. After addition of TMB substrate solution to the wells, the reaction was stopped using 1N H2SO4, and the plate read on a BioTek Synergy HT plate reader at 450 nm.
The astrovirus capsid protein and the PIC1 molecules derived from it inhibit classical complement pathway activation by binding to the pattern recognition molecule C1q. The inventors next tested peptide variant binding to C1q in an ELISA-type assay in which C1q is used as the capture substrate and bound peptide detected with a rabbit polyclonal antibody against the peptide portion of PA-dPEG24 ([…]-d24; SEQ ID NO: 3). Binding curves were derived for the stapled and D-amino acid peptides based on the PA-I8Sar and PA-C9Sar (FIG. 5A-5C) backbone, from which half-maximal binding concentrations were calculated (FIGS. 2A and B, respectively). […] For the peptides based on the PA-C9Sar backbone, C1q was bound to a greater degree than the parent peptide (FIG. 2B).

[1] = tested on: antibody-initiated complement activation (lysis of AB human red blood cells by type O serum); assay: ABO incompatibility hemolytic complement assay (CH50-type); assay type: cell-based; settings: peptides 0.8 mg/ml (~0.5 mM); compared to parent peptide
Protocol: FIG. 1A-1B show PIC1 peptides' inhibition of complement activation in an ABO incompatibility assay. […] Inhibition of ABO incompatibility hemolysis in a CH50-type assay. Peptides are at a final concentration of 0.5 mM. Values are represented as a percent of the positive control, which consists of human 0 sera and AB red blood cells in GVBS^++ buffer. Data are the means of n=3 independent experiments±SEM.
For hemolytic complement assays, human red blood cells (RBCs) from type AB donors were purified, washed, and standardized to 1.0×10^9 cells/ml, as previously described. Human sera from type 0 donors at a 15% final concentration was combined with 0.5 mM of the peptides and the volume was brought up to 0.2 ml with GVBS^++ and 5.0×10^7 RBCs. The samples were incubated for 1 hour at 37° C. and then spun at 3,000 rpm for 5 minutes and the supernatant was collected and read at 412 nm. Values are represented as a percent of the positive control, which consists of human 0 sera and AB red blood cells in GVBS^++ buffer.
To assess the extent to which the peptide variants inhibit antibody-initiated complement activation, an ABO incompatibility ex vivo assay was utilized in which purified erythrocytes from a ‘type AB+’ donor are incubated with sera from a ‘type 0’ subject containing anti-A and anti-B antibodies. Peptides were tested at a concentration of 0.8 mg/ml (˜0.5 mM).

[2] = Total Antioxidant Capacity (TAC) assay; settings: highest peptide concentration 1.5 mM; compared to parent peptide
Protocol: As previously reported, the TAC (Total Antioxidant Capacity) Assay (Cell Biolabs, Inc, San Diego, CA) was used to measure the antioxidant capacity of the PIC1 variants based on the reduction of copper (II) to copper (I). The kit protocol was performed per the manufacturer's recommendations.
The antioxidant properties for the PIC1 variants were evaluated in a Total Antioxidant Capacity (TAC) assay, as previously reported. Total antioxidant activity over a range of peptide concentrations were determined for the stapled and the D-amino acid peptides based on the PA-I8Sar and PA-C9Sar backbones (FIG. 4A-4B), with the activity of the highest peptide concentration reported (1.5 mM) (FIG. 5A-5C).

[3] = without PEGylation; as described in U.S. Pat. No. 10,005,818; cited from earlier work
[4] = tested on: purified human Pan T-cells; assay: T-cell exhaustion protocol (repeated CD3/CD28 Dynabead stimulation); assay type: cell-based; settings: ELISA, listed as RLS-0154
Protocol: Purified human pan-T-cells were subject to stimulation with Dynabeads every 48 hours over the period of 8 days with cells also receiving PIC1 peptides (2 mg/ml) at each stimulation. Cells not receiving Dynabeads were run in parallel to assess background levels of Caspase 3/7 signal. At the eighth day, cells were harvested, and the levels of Caspase 3/7 determined by ELISA.
Purified human pan-T-cells were subject to stimulation with Dynabeads every 48 hours over the period of 8 days with cells also receiving PIC1 peptides (2 mg/ml) at each stimulation. Cell supernatants were collected at each stimulation and levels of IL-2 and IFN-gamma assayed by ELISA.
T-cell exhaustion is a form of T-cell dysfunction that occurs in cancer. It is generally defined by poor effector function, reduction in cytokine release (e.g., IL-2, TNF-alpha, IFN-gamma), sustained expression of inhibitory receptors (e.g., PD-1, LAG-3, CD244, CD160) with the progressive loss of effector function due to overstimulation. Exhaustion can prevent optimal control of tumor growth. Exhausted T cells are prevalent in the tumor microenvironment (TME) and can lead to T-cell apoptosis. T-cell exhaustion is reversible and pharmaceutical inhibition of T-cell exhaustion has been considered a promising strategy by many cancer researchers. To ascertain if PIC1 peptides could reverse T-cell exhaustion and increase T cell viability and effector function, a T-cell exhaustion protocol was developed. To induce T-cell exhaustion, purified human Pan T-cells were stimulated with T-Activator CD3/CD28 Dynabeads and cells were washed and re-stimulated every 48 hours. PIC1 peptides were added to the cells after each stimulation with Dynabeads. After three to four stimulations, cells were harvested for readouts which consisted of assessing T-cell apoptosis by measuring Caspase 3/7 levels and production of cytokines IL-2 and IFN-gamma, which are indicative of T-cell functionality. […] To further evaluate if PIC1 peptides could restore T-cell functionality in cells that have undergone the exhaustion protocol, the inventors next assessed production of cytokines IL-2 and IFN-gamma. Supernatants from the cells after each stimulation was collected and the cytokines measured by ELISA. […] The lower level of IFN-gamma signal was consistently seen in this assay.

CTLA-4 = molecular target: T4, CTLA-4 (Homo sapiens, UniProt P16410); assay: CTLA-4 Blockade Bioassay (Promega); assay type: cell-based; design: host or cells: Jurkat T cells (CTLA-4 effector cells) co-cultured with aAPC/Raji cells; settings: increasing concentrations; listed as RLS-0154
T4 sequence (P16410 36-223): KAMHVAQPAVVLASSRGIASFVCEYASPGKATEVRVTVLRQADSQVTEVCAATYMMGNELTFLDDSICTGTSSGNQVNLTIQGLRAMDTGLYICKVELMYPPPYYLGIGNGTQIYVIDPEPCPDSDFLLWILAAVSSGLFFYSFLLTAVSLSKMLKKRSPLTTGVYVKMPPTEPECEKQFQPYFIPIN
Protocol: CTLA-4 effector cells were incubated with aAPC/Raji Cells in the absence or presence of increasing concentrations of anti-CTLA-4 antibody (positive control), RLS-0122, RLS-0150, RLS-0154, RLS-0164 and RLS-0168 and RLS-0088 (negative control). Luminescence was detected in luminometer plate reader. The drop-off in signal with the test peptides at high concentrations is due to cell death as a result of peptide buffer effects on the cells.
To assess if PIC1 peptides could block CTLA-4 inhibitory activity in a cell-based assay, select peptides were screened in the CTLA-4 Blockade Bioassay (Promega). This bioluminescent cell-based assay can be used to measure the potency and stability of molecules targeting CTLA-4 and consists of two genetically engineered cell lines: CTLA-4 effector cells: Jurkat T cells expressing human CTLA-4 and a luciferase reporter driven by a native promoter which responds to TCR/CD28 activation and aAPC/Raji Cells: Raji cells expressing an engineered cell surface protein designed to activate cognate TCRs in an antigen-independent manner and endogenously expressing CTLA-4 ligands CD80 and CD86. When the two cell types are co-cultured, CTLA-4 competes with CD28 for their shared ligands, CD80 and CD86 and thus inhibits CD28 pathway activation and promoter-mediated luminescence. Addition of a molecule that blocks the interaction of CTLA-4 with its ligands CD80 and CD86 results in promoter-mediated luminescence.

VEGF = molecular target: T5, VEGF (Homo sapiens, UniProt P15692); assay: VEGF Bioassay (Promega), VEGF signaling via VEGFR-2 (KDR); assay type: cell-based
T5 construct: Promega (bioassay)
T5 sequence (P15692 27-191 isoform P15692-4): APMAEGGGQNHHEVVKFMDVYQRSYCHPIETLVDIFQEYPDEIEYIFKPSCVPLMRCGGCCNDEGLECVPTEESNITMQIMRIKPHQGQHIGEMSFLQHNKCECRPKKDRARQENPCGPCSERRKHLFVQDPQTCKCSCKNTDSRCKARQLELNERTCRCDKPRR
Description: Luminescence was detected in luminometer plate reader.
Angiogenesis, or the formation of new blood vessels from the established vasculature, is an essential element in tumor growth and metastasis formation. Inhibiting tumor angiogenesis is considered a major therapeutic strategy in oncology. […] The bioluminescent signal is detected in a luminometer.

[5] = peptides 2 mg/ml, stimulation 2

T3 sequence (P02745 23-245): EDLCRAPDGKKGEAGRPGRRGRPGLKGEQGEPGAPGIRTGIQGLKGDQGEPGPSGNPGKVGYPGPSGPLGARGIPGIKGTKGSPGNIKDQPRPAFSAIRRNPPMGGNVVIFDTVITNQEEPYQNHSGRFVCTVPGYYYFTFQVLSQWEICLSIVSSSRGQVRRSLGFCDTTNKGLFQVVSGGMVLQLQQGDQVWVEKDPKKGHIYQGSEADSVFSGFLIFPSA
T3 sequence (P02746 28-253): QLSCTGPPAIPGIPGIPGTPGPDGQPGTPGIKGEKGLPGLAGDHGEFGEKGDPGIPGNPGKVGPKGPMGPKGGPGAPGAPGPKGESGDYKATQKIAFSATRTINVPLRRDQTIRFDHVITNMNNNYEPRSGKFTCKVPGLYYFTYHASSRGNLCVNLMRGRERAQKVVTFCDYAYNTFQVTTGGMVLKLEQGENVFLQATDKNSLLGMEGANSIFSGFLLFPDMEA
T3 sequence (P02747 29-245): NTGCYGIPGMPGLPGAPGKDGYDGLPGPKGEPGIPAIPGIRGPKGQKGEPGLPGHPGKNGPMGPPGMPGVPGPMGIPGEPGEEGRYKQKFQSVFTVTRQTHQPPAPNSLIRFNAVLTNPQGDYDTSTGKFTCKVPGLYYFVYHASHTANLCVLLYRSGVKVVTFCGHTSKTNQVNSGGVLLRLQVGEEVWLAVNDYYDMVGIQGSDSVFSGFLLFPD
T2 sequence (P05164 279-745 limits assumed): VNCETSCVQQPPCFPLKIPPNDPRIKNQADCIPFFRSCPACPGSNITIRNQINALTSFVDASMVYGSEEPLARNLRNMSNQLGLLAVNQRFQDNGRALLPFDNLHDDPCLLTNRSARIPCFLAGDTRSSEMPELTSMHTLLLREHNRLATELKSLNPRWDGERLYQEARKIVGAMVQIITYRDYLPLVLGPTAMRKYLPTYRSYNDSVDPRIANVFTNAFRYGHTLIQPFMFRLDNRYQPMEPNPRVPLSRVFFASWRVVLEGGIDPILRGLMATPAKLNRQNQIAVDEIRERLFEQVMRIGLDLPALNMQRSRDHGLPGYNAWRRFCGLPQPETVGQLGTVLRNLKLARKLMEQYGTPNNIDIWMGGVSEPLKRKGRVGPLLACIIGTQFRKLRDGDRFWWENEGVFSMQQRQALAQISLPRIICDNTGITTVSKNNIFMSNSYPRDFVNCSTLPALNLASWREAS
T2 sequence (P05164 165-273 limits assumed): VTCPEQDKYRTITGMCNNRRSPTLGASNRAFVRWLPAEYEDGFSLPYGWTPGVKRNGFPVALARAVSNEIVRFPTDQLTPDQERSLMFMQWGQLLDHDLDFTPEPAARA
T1 sequence (Q9NZQ7 19-238 limits assumed): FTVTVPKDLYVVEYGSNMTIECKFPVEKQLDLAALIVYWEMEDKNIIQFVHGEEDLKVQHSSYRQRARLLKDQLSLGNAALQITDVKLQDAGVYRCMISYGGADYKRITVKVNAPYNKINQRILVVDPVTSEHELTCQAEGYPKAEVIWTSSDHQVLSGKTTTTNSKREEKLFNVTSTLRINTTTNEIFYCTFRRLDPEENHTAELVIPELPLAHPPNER

IALILEPICCQERAA-PEG24 (C-terminal PEG24) [PA-0071, PIC1 peptide with C-terminal monodisperse 24-mer PEGylated moiety]
inhibition of binding of PD-1 to PD-L1, in words (PD-1 binding to PD-L1): did not inhibit

IS5LILS5PI(Sar)CQERAA (I[S5]LIL[S5]PI[Sar]CQERAA; staple 2-6; not fully specified; printed as IS5LILS5PI(Sar)CQERAA) [PA-0152]
inhibition of MPO activity (half-maximal values), in words (MPO): decreased MPO inhibition | binding to C1q (binding curves, half-maximal binding), in words (C1q): did not titrate

IAdLILEP(Sar)CS5QERS5A (H-IA[dL]ILEP[Sar]C[S5]QER[S5]A-OH; staple 10-14; not fully specified) [PA-0142]
inhibition of ABO incompatible hemolysis (complement inhibition), in words [1]: similar | total antioxidant capacity, in words [2]: decreased activity compared to the parent peptide | binding to C1q (binding curves, half-maximal binding), in words (C1q): did not bind C1q

IALILEPI(Sar)CQERAA (IALILEPIXCQERAA; sarcosine at position 9; MOD_RES (9)..(9) Sarcosine) [PA-0089, parent peptide, sarcosine at position 9 of PIC1]
solubility in water [3]: water soluble without PEGylation

IALILES5I(Sar)CS5ERAA (IALILE[S5]I[Sar]C[S5]ERAA; staple 7-11; not fully specified; printed as IALILES5I(Sar)CS5ERAA) [PA-0154]
Caspase 3/7 levels, in words ([4]; peptides 2 mg/ml at each stimulation, day 8): increase in Caspase 3/7 levels; also recorded: did not display reduction of Caspase levels | IFN-gamma levels in cell supernatants, in words [4, 5]: not and increased levels | IL-2 levels in cell supernatants, in words [4, 5]: detectable IL-2 at stimulation 2; also recorded: increased levels | inhibition of CTLA-4 mediated cell signaling (increase in luminescence), in words (CTLA-4): showed inhibitory activity; also recorded: able to inhibit CTLA-4 mediated cell signaling | inhibition of VEGF signaling via VEGFR-2 (luminescence), in words (VEGF): dose-dependently reduced luminescence | inhibition of MPO activity (half-maximal values), in words (MPO): decreased MPO inhibition
